Experimental data reported in patent US20180318437A1 (Bayer, published 2018).
Blank lines part the entries; values can stand above or below the binder they belong to.

Experiments:
[1] = target: T1, IL-3Ralpha, CD123, on CD123-positive human cancer cell lines (human, UniProt P26951 20-378); assay: flow cytometry on MV-4-11 cells, titration from 10 ug/ml in 1:5 steps, anti-kappa-FITC secondary antibody; MV-4-11 cells
T1 construct: Target of the flow cytometry and internalisation assays; The cell line of each value is named under assay
T1 sequence: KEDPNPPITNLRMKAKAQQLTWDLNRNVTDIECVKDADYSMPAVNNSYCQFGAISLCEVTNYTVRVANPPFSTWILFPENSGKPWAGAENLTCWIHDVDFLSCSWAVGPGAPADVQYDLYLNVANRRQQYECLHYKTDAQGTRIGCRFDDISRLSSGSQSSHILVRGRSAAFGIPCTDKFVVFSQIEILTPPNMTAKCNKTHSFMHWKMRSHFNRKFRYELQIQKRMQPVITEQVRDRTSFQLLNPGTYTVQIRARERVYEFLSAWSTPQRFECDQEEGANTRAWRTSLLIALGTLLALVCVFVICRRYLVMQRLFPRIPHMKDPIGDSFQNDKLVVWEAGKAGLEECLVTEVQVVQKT

[2] = target: T2, TPP-5521, recombinant antigen IL3Ra aa20-305 (IL3R3alpha/CD123) (murine (as printed under 'Origin' in …, UniProt P26951 20-305 (human entry))); assay: SPR, Biacore T200, antibody captured by anti-human Fc, IL3Ra (TPP-5521) as analyte 1.56-200 nM, 25 C, 1:1 Langmuir fit
T2 construct: Bought protein; also called IL3Ra protein; extracellular domain of IL3Ra
T2 sequence: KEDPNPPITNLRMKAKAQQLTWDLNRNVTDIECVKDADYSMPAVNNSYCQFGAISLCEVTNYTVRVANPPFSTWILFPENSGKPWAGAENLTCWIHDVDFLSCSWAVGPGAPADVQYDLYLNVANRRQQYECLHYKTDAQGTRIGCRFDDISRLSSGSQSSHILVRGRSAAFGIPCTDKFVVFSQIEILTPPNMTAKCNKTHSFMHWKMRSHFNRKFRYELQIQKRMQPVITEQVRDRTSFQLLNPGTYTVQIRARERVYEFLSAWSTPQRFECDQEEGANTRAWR

EC50 [1]: 2.6 nM
B1: TPP-5969 (antibody, human IgG1, kappa, V domains shown)
VH: QVQLVQSGAEVKKPGSSVKVSCKASGGTFSDYYMKWVRQAPGQGLEWMGDIIPSNGATFYAQKFQGRVTITADESTSTAYMELSSLRSEDTAVYYCARSHLLRASWFAYWGQGTLVTVSS
VL: DIVMTQSPDSLAVSLGERATINCESSQSLLNSGNQKNYLTWYQQKPGQPPKLLIYWASTRESGVPDRFSGSGSGTDFTLTISSLQAEDVAVYYCQNDYSYPYTFGQGTKLEIKR
notes: Humanized variant of 7G3 made by CDR grafting, human IgG1 kappa; Tested as unconjugated antibody; also called anti-CD123 AK1A; humanized variant of 7G3

koff [2]: 0.00019 s⁻¹
kon [2]: 300000 M⁻¹ s⁻¹
B2: TPP-6013 (antibody, human IgG1, kappa, V domains shown)
VH: QVQLQESGPGLVKPSQSLSLTCSVTDYSITSGYYWNWIRQFPGNKLEWMGYISYDGSNNYNPSLKNRISITRDTSKNQFFLKLSSVTTEDTATYYCSRGEGFYFDSWGQGTTLTVSS
VL: DIMMSQSPSSLAVSVGEKFTMTCKSSQSLFFGSTQKNYLAWYQQKPGQSPKLLIYWASTRESGVPDRFTGSGSGTDFTLAISSVMPEDLAVYYCQQYYNYPWTFGGGTKLEIKR
notes: Tested as unconjugated antibody; also called anti-CD123 AK1C; chimeric variant of 12F1
